Assay results reported in PMC5418593.

Assays:
[1] = target: T1, hEXOG-R314A (human, UniProt Q9Y2C4 59-368, R314A;del2-58); experiment: fluorescence anisotropy; 20 mM EDTA; apparent Kd; EK140: 20 mM HEPES pH 7.5, 140 mM KCl, 1 mM TCEP, 5% glycerol; plus 20 mM EDTA for anisotropy and EMSA (gel at 4 C, 0.5x TBE with 20 mM EDTA); ITC in EK140 at 20 C; settings: protein: recombinant; tags: C-terminal His-tag; chain copies: 2; label: 3'-fluorescein; 10 bp duplex
[2] = target: T2, hEXOG wild type (hEXOG-dN58) (human, UniProt Q9Y2C4 59-368, del2-58); experiment: fluorescence anisotropy; 20 mM EDTA; apparent Kd (main text 6.2); EK140: 20 mM HEPES pH 7.5, 140 mM KCl, 1 mM TCEP, 5% glycerol; plus 20 mM EDTA for anisotropy and EMSA (gel at 4 C, 0.5x TBE with 20 mM EDTA); ITC in EK140 at 20 C; settings: protein: recombinant; tags: C-terminal His-tag; chain copies: 2; label: 3'-fluorescein; 10 bp duplex
[3] = target: T2, hEXOG wild type (hEXOG-dN58); experiment: fluorescence anisotropy; 20 mM EDTA; apparent Kd; EK140: 20 mM HEPES pH 7.5, 140 mM KCl, 1 mM TCEP, 5% glycerol; plus 20 mM EDTA for anisotropy and EMSA (gel at 4 C, 0.5x TBE with 20 mM EDTA); ITC in EK140 at 20 C; settings: protein: recombinant; tags: C-terminal His-tag; chain copies: 2; label: 3'-fluorescein; 10 bp duplex
[4] = target: T2, hEXOG wild type (hEXOG-dN58); experiment: EMSA; 20 mM EDTA; apparent Kd; EK140: 20 mM HEPES pH 7.5, 140 mM KCl, 1 mM TCEP, 5% glycerol; plus 20 mM EDTA for anisotropy and EMSA (gel at 4 C, 0.5x TBE with 20 mM EDTA); ITC in EK140 at 20 C; settings: protein: recombinant; tags: C-terminal His-tag; chain copies: 2; label: 5'-32P; 10 bp duplex
[5] = target: T1, hEXOG-R314A; experiment: as above; settings: protein: recombinant; tags: C-terminal His-tag; chain copies: 2; label: 5'-32P; 10 bp duplex
[6] = target: hEXOG-H140A (human, UniProt Q9Y2C4 59-368, H140A;del2-58); experiment: X-ray crystallography; 1.85 A; DNA in both active sites; EK140: 20 mM HEPES pH 7.5, 140 mM KCl, 1 mM TCEP, 5% glycerol; plus 20 mM EDTA for anisotropy and EMSA (gel at 4 C, 0.5x TBE with 20 mM EDTA); ITC in EK140 at 20 C; settings: protein: recombinant; tags: C-terminal His-tag; chain copies: 2; 10 bp duplex; two duplexes per dimer

B1: 10 bp 5'P-dsDNA, 3'-fluorescein (dsDNA)
DNA 1: CTGACGTGCG
DNA 2: CGCACGTCAG
modifications: 5'-phosphate on one strand
Kd [1]: 35.7 ± 7.2 nM | Kd [2]: 6.25 ± 2 nM

B2: 10 bp 5'OH-dsDNA, 3'-fluorescein (dsDNA)
DNA 1: CTGACGTGCG
DNA 2: CGCACGTCAG
modifications: 5'-OH
Kd [3]: 22.2 ± 5.1 nM

B3: 10 bp dsDNA, 5'-32P (dsDNA)
DNA 1: CTGACGTGCG
DNA 2: CGCACGTCAG
modifications: 5'-phosphate (32P)
Kd [4]: 3.4 ± 1.2 nM | Kd [5]: 26.5 ± 6.6 nM

B4: 10 bp DNA for crystallization (dsDNA)
DNA 1: CTGACGTGCG
DNA 2: CGCACGTCAG
modifications: 5'-phosphate on one strand only
binding result [6]: binds
